Experimental data from patent publication US20230025129A1 (KYMAB, published 2023).

T1: mouse matriptase-2 ECD protein his tag (mouse, UniProt Q9DBI0 80-811)
T1 construct: aa 80-811 of Q9DBI0 with C-terminal linker and His tag; also called mouse MTP-2 ECD; moMTP-2
T1 sequence: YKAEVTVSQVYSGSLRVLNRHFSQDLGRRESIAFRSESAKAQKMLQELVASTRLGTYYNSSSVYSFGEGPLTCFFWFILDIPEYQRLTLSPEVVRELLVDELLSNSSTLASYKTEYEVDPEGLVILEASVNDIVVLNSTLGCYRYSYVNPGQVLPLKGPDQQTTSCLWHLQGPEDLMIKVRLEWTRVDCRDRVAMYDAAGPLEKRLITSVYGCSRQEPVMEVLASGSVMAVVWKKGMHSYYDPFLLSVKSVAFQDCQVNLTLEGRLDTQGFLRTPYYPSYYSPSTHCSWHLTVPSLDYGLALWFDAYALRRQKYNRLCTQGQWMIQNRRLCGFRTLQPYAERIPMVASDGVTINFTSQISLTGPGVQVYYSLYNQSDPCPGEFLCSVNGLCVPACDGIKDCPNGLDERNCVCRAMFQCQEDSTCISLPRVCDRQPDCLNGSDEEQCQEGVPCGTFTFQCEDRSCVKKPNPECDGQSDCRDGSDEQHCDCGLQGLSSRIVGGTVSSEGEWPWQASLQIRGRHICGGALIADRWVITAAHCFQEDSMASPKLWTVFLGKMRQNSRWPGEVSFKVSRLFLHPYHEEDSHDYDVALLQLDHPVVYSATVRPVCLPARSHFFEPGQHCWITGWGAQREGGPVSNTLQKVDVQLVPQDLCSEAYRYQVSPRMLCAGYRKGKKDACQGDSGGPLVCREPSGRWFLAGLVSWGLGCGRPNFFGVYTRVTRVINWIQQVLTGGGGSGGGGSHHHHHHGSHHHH

T2: human matriptase-2 mask ECD protein his tag (human, UniProt Q8IU80 78-576)
T2 construct: MTP-2 ECD without the serine protease domain, with C-terminal linker and His tag; also called headless huMTP-2 ECD 78-576 aa; headless human MTP-2 ECD
T2 sequence: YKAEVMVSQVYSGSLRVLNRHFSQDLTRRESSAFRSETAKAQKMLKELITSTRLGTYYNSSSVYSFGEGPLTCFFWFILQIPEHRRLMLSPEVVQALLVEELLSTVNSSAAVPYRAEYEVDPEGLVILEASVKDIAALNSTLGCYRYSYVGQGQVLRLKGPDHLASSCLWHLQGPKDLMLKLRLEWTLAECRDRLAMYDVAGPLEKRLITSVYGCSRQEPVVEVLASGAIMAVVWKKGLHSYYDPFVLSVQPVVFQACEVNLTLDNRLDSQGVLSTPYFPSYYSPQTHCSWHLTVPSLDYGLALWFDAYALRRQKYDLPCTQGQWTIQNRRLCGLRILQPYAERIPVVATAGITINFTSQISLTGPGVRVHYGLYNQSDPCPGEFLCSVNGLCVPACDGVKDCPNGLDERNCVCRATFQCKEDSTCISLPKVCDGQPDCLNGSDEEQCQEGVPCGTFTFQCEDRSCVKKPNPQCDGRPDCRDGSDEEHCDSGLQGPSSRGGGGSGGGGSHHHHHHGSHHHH


Legend:
[1] = molecular target: T1, mouse matriptase-2 ECD protein his tag; experiment: HTRF competition with 647-labelled aprotinin for mouse MTP-2 protein
Text: Aprotinin is a pan serine protease inhibitor and is known to occupy the active site of serine proteases. A HTRF competition assay against labelled aprotinin confirmed that NORI-003, NORI-006, NORI-008 and NORI-011 were binding at or near this same site and competed with aprotinin for binding to human MTP-2 protein. […] This was confirmed by their lack of competition of aprotinin against moMTP-2 while IC50 values in the enzymatic assay were similar to those of NORI-011. […] FIG. 8. Table L.
Antibodies were titrated into HTRF buffer (DPBS (Gibco—14190144) with 0.1% BSA (Sigma—A7906) and potassium fluoride 0.53M (Sigma—60240-250 G)) at 4× conc with a starting concentration of 200 nM. 5 μL/w of antibodies were added to 384-well white plates (Greiner—784904). Purified proteins of huMTP-2 and moMTP-2 were diluted into HTRF buffer (huMTP-2=40 nM and moMTP-2=240 nM) 4× final conc and plate 5 μL/w. Anti-MTP-2 mAb (NORI-037) in molgG1 backbone was then diluted to 1.2 nM 4× final conc with DELFIA Eu-N1 Rabbit Anti-Mouse-IgG antibody (AD0207) at a 1:1000 dilution 4× final conc in HTRF buffer. Finally, dilute 647-labelled Aprotinin (Sigma—A3428) in HTRF buffer to 20 nM 4× final conc and plate 5 μL/w. Incubate plates for 3 hours or more at RT in the dark. Read plate using HTRF 100 flashes protocol on the EnVision plate reader at 1H 2H and 3H. (Ex: 340 nm Em1: 620 nm Em2: 665 nm).

[2] = molecular target: T1, mouse matriptase-2 ECD protein his tag; experiment: SPR, his-tagged MTP-2 ECD protein (Table W); true KD could not be measured accurately, very slow off-rate
Description: (§1) Off-rate screening was performed by surface plasmon resonance (SPR), using a Biacore 8K system (GE Healthcare). Anti-human Fc mix (˜1000 RU) were immobilised in both active and reference channels in HBS-P+ buffer (GE BR100671) pH 7.4. Anti-MTP-2 hulgG4PE antibodies were then captured for 60 sec at 10 μl/min at 1 μg/ml concentration (approximatively 35 and 50 RU were captured) only on the active channel. MTP-2 ECD protein analytes were then injected (at 100, 25, 6.25, 1.56 and 0 nM concentrations) for 120 sec (association time) at 30 μl/min and dissociation monitored for 600 sec. Multiple cycle kinetics mode was used with all 8 channels being used. Reference and background were subtracted from the sensorgrams for each antibody and data was fitted using a 1:1 interaction model in the Biacore evaluation software. Rmax, ka, kd globally fitted, RI=0.
NORI-011, NORI-008, NORI-003 and NORI-006 were all found to have cross-reactive binding to human, mouse, cyno and rat MTP-2 ECD proteins. […] The true KD value for NORI-008 could not be measured accurately for human or mouse MTP-2 due to a very slow off-rate.

[3] = molecular target: T2, human matriptase-2 mask ECD protein his …; experiment: SPR, antibody captured, headless ECD as analyte
Description: as §1
Binding was also assessed using the above SPR method with “headless” huMTP-2 ECD 78-576 aa instead of the full ECD. Headless ECD corresponds to the MTP-2 ECD without the serine protease domain.

[4] = molecular target: T1, mouse matriptase-2 ECD protein his tag; experiment: SPR (Biacore 8K), huIgG4PE captured on anti-human Fc, MTP-2 ECD as analyte, 1:1 fit; off-rate too slow to be determined
Description: as §1

[5] = molecular target: T1, mouse matriptase-2 ECD protein his tag; experiment: SPR (Biacore 8K), huIgG4PE captured on anti-human Fc, MTP-2 ECD as analyte, 1:1 fit; true KD could be < the value shown
Description: as §1

IC50 [1] | Kd [2] | koff [4] | Kd [5] | Binder | binding result [3]
1.42 nM | 0.000206 nM |  |  | NORI-008 (antibody, human IgG4 S228P, kappa, V domains shown, human IgG4PE, kappa, in the in vitro assays; a mouse IgG1 format was used in one in vivo study only; also called NORI-008 hulgG4PE; NORI-008 IgG) VH: QVQLQESGPGLVKPSETLSLTCSVSGGSVSSGRYYWTWIRQPPGKGLEWIGYISNSGNTNYNPSLKSRVTISLDTSKKQFSLSLSAVTAADTAVYYCARGFIYDYWFDPWGQGSLVTVSS VL: DSQMTQSPSSLSASVGDRVTITCQASQDIDNYLNWYQQRPGKAPKLLIYDASKLETGVPSRFSGSGSGTDFTFTISSLQPEDFATYYCQQYGNLPITFGQGTRLDIKR | 
120 nM |  |  |  | NORI-011 (antibody, human IgG4 S228P, lambda, human IgG4PE, lambda; NORI-010 with a P124S mutation in the VH domain) heavy: not shown light: QSALTQPPSASGSPGQSVTISCTGTSSDVGFYNFVSWYQQHPDKAPKVMIYEVSKRPSGVPDRFSGSKSGNTASLTVSGLQAEDEADYYCSSYAGSNKVVFGGGTKLTVLGQPKAAPSVTLFPPSSEELQANKATLVCLISDFYPGAVTVAWKADSSPVKAGVETTTPSKQSNNKYAASSYLSLTPEQWKSHRSYSCQVTHEGSTVEKTVAPTECS | 
 |  | ≤ 1e-05 s⁻¹ | ≤ 0.949 nM | NORI-013 (antibody, human IgG4 S228P, lambda, V domains shown, human IgG4PE, lambda) VH: EVQLVESGGGLIQAGRSLRLSCAASGFTFDEHVIYWVRQIPGKGLEWISSISWKSDIIAYADSVKGRFTISRDNAKNALYLQMNSLRAEDTALYYCAREKDGDFYYYYFAMDVWGQGTTVTVSS VL: QSALTQPPSASGSPGQSVTLSCTGTSSDVGYYNYVSWYLQHPGKAPKLMIYEVSKRPSGVPDRFSGSKSANTASLTVSGLQAEDEADYYCSSYAGSNKVVFGGGTKVTVLG | no binding (tested: analyte up to 100 nM)
 |  | ≤ 1e-05 s⁻¹ | ≤ 0.83 nM | NORI-014 (antibody, human IgG4 S228P, lambda, V domains shown, human IgG4PE, lambda) VH: EVQLVESGGGLIQAGRSLRLSCAASGFTFDEHVMYWVRQIPGKGLEWISSITWKSDIIAYADSVKGRFTISRDNAKNALYLQMNSLRAEDTALYYCAREKDGDFYYYYFAMDVWGQGTTVTVSS VL: QSALTQPPSASGSPGQSVTLSCTGTSSDVGYYNYVSWYLQHPGKAPKLMIYEVSKRPSGVPDRFSGSKSANTASLTVSGLQAEDEADYYCSSYAGSNKVVFGGGTKVTVLG | no binding (tested: analyte up to 100 nM)
